According to the supplement of paper PMC10567573:

B1: AUP1 (parent)
chain: FCASTRLPPTPLLLFPEEEATNGR

Variants of: B1
Assay: protein stability index of a GFP-peptide fusion (GPS, HEK-293T) (PSI 1-6); higher = more stable
Details: c terminus: a fixed tail appended
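Note: lentivirally expressed fusions sorted by FACS into six bins by GFP to DsRed ratio, PSI derived from sequencing read proportions per bin multiplied by bin number.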

Protein stability index, by site and new letter:
C2: S 3.8 | T 3.42 | E 4.91 | I 2.62 | G 4.33 | P 3.92 | K 4.06 | Q 3.58 | D 4.81 | N 3.82 | A 3.42 | H 2.17 | W 2.76 | R 3.81 | F 3.1 | Y 3.31 | V 1.55 | L 3.39 | M 3.73
T10: D 2.84 | K 3.04 | V 2.39 | M 2.28 | I 2.52 | G 2.53 | H 1.68 | F 1.32 | Y 1.99 | L 2.23 | E 3.23 | S 2.8 | R 2.87 | A 3.13 | W 2.33 | N 2.92 | C 2.33 | Q 3.13
F15: G 3.24 | E 3.46 | D 3.62 | K 3.11 | N 3.44 | W 2.68 | A 2.93 | S 3.45 | H 3.34 | T 3.74 | Y 2.61 | M 3.12 | Q 3.35 | R 3.37 | L 3.44 | C 2.61 | I 3.23 | V 3.1
L12: D 3.72 | C 2.95 | S 3.47 | M 3.25 | K 3.6 | H 2.87 | N 3.35 | E 4.1 | V 3.31 | I 2.58 | W 2.77 | Q 3.7 | Y 1.97 | R 3.12 | F 3.16 | G 2.87
E17: C 1.52 | R 1.96 | A 1.96 | L 1.5 | Y 2.47 | T 1.62 | K 2.25 | N 2.55 | G 2.31 | S 1.8 | M 2.51 | F 1.83 | I 1.93 | D 2.7 | Q 2.28 | W 1.7 | V 2.09
F1: C 2.6 | E 4.65 | W 3.74 | N 4.16 | M 4.27 | K 4.17 | Q 4.54 | R 4.24 | L 3.9 | P 4.53 | A 4.17 | D 4.35 | G 4.27 | T 4.6 | V 4.27 | I 4.27 | Y 3 | H 4.28 | S 4.3
A3: R 2.23 | T 2.84 | D 3.33 | S 2.44 | G 2.36 | F 2.45 | E 3.67 | Y 1.7 | K 2.5 | W 1.89 | M 2.88 | V 2.76 | C 2.78 | N 2.62 | P 2.25 | H 2.49 | Q 2.88 | I 2.46 | L 3.27
L13: R 3.45 | T 3.56 | G 3.42 | H 3.4 | K 2.74 | N 3.12 | F 2.18 | E 3.86 | M 3.15 | I 2.77 | Q 3.32 | A 3.43 | D 3.94 | V 3.25 | C 3.01 | Y 2.62 | W 1.59 | S 3.54
R6: D 3.9 | Q 3.49 | F 2.2 | M 3.27 | W 2.12 | A 3.37 | K 3.09 | E 4.11 | C 2.7 | N 3.5 | L 2.73 | G 2.7 | H 3.25 | I 2.46 | S 3.29 | V 3.42 | Y 2.33
P9: K 2.67 | A 2.59 | R 2.3 | M 1.84 | S 2.82 | I 2.43 | H 2.56 | T 2.46 | V 2.62 | F 1.58 | E 2.89 | C 2 | Y 2.03 | G 2.78 | D 2.74 | Q 2.62 | W 2.97 | N 2.84 | L 2.11
P16: R 2.19 | C 2.08 | N 2.9 | W 2.48 | V 1.8 | L 1.57 | D 3.05 | H 2.61 | S 2.4 | I 1.62 | Y 2.03 | Q 2.6 | M 2.15 | T 1.74 | A 2.68 | K 2.26 | E 3.48 | G 2.69 | F 2.24
L7: W 1.51 | Q 3.16 | V 3.31 | E 3.24 | M 3 | R 2.63 | K 2.89
P8: H 2.33 | E 2.91 | C 2.08 | S 2.84 | G 2.66 | M 2.57 | Q 3.19 | Y 1.9 | N 2.66 | L 1.96 | A 2.48 | F 2.43 | V 2.41 | K 2.09 | I 2.3 | T 2.94 | W 2.27 | D 2.92 | R 2.67
E19: G 2.29 | L 2.19 | Q 2.94 | A 2.74 | M 2.08 | P 2.38 | D 2.68 | C 2.04 | R 2.05 | I 2.02 | K 2.32 | N 2.62 | F 1.73 | S 2.31 | H 2.23
S4: D 3.6 | Y 2.28 | E 3.52 | Q 3.36 | I 2.49 | M 2.59 | N 2.94 | K 3.01 | A 2.8 | R 3.03 | C 2.54 | T 2.76 | V 3.08 | W 3.38 | H 3.05 | L 2.85 | G 2.85 | F 2.54
P11: M 2.6 | K 2.39 | Y 1.91 | I 2.04 | V 2.8 | R 2.06 | H 2.33 | Q 2.58 | D 2.99 | G 2.54 | S 3.05 | N 2.83 | A 2.39 | T 2.74 | C 2.57 | F 2.08 | E 3.4 | L 1.63 | W 2.14
L14: F 2.14 | R 3.56 | K 2.8 | C 2.4 | H 3.49 | S 3.44 | A 3.58 | G 2.66 | N 3.61 | D 4.01 | Q 3.88 | V 3.24 | T 3.41 | P 3.48 | M 3.29 | W 1.38 | Y 2.59 | I 3 | E 3.74
E18: W 1.73 | H 2.15 | Q 2.72 | A 2.19 | P 2.15 | S 2.12 | K 2.32 | M 1.94 | Y 2.07 | N 2.37 | F 1.82 | I 2.4 | C 2.18 | G 2.54 | V 2.21 | D 2.52 | R 2.23 | L 2.54 | T 2.2
T5: P 3.16 | C 1.86 | I 2.22 | L 2.11 | H 2.66 | D 3.44 | G 2.7 | Q 2.86 | W 2.49 | R 1.99 | A 3.19 | N 3.05 | E 3.77 | F 1.81 | S 2.64 | V 2.83 | Y 2.27 | K 2.64 | M 2.96
